Usually Kd stands for a measure of binding affinity in units of concentration.

Assay [1] has as its target T1, USP7 Ubl45 (last two Ubl domains with the activating C-terminal tail) (UniProt Q93009 890-1102).
T1 construct: USP7 Ubl domains 4 and 5 with the C-terminal tail, residues 890-1102 (25 kDa); source: E. coli BL21, purified (Glutathione Sepharose, 3C cleavage, anion exchange, gel filtration); 15N-labelled in M9 minimal medium for NMR
As to the kind of experiment: SPR; GST-USP7CD captured by anti-GST antibody on CM5 chip, Ubl45 or Ubl45ΔC flowed over; Biacore T200, 25 °C; 20 mM HEPES pH 7.5, 100 mM NaCl, 1 mM DTT, 1 mM EDTA, 0.05% Tween-20, 1 mg/mL BSA, 1 mg/mL dextran; equilibrium fit 1:1, extrapolated. Particulars: both partners purified.

The target of assay [2] is T2, Ubl45^ΔC (tailless Ubl45) (UniProt Q93009 890-1082).
T2 construct: USP7 Ubl45 without the C-terminal tail: stop codon introduced at residue 1083; start 890 as told for Ubl45; also called tailless construct; source: E. coli BL21, purified (Glutathione Sepharose, 3C cleavage, anion exchange, gel filtration)
T2 sequence (Q93009 890-1082, stated change not applied): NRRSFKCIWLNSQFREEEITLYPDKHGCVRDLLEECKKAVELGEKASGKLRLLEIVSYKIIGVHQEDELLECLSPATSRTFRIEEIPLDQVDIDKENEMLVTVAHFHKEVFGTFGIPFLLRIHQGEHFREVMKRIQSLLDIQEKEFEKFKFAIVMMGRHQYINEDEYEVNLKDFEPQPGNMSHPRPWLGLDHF
Described as above. Particulars: both partners purified.

T1 sequence (Q93009 890-1102): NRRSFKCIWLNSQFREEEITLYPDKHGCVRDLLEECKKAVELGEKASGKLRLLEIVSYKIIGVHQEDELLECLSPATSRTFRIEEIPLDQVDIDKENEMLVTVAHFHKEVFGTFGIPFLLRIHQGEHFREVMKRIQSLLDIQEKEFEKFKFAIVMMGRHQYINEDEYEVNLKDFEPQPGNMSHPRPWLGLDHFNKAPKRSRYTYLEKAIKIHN

B1: GST-USP7CD (domain or fragment)
chain: KKHTGYVGLKNQGATCYMNSLLQTLFFTNQLRKAVYMMPTEGDDSSKSVPLALQRVFYELQHSDKPVGTKKLTKSFGWETLDSFMQHDVQELCRVLLDNVENKMKGTCVEGTIPKLFRGKMVSYIQCKEVDYRSDRREDYYDIQLSIKGKKNIFESFVDYVAVEQLDGDNKYDAGEHGLQEAEKGVKFLTLPPVLHLQLMRFMYDPQTDQNIKINDRFEFPEQLPLDEFLQKTDPKDPANYILHAVLVHSGDNHGGHYVVYLNPKGDGKWCKFDDDVVSRCTKEEAIEHNYGGHDDDLSVRHCTNAYMLVYIRESKLSEVLQAVTDHDIPQQLVERLQEEKRIEAQKRKERQE
modifications: GST tag (used for chip immobilisation) left out; limits 208-560 are the usual USP7 CD construct limits, not printed in the text (consistent with the stated 42 kDa)
B1: the Kd in assay [1] is ~280 µM; in assay [2], 420 µM.

Values taken from publication PMC6335408 (Nature Communications, 2019).
